Consider three molecules from patent US6359194 (Takeda / Millennium, dated 2002).

To fix the notation:
B1: rchd534 protein fused to a flag peptide (transfected 293 cells or BAECs) (other, human, UniProt O43541-2 1-235, looked up)
chain: MSRMGKPIETQKSPPPPYSRLSPRDEYKPLDLSDSTLSYTETEATNSLITAPGEFSDASMSPDATKPSHWCSVAYWEHRTRVGRLYAVYDQAVSIFYDLPQGSGFCLGQLNLEQRSESVRRTRSKIGFGILLSKEPDGVWAYNRGEHPIFVNSPTLDAPGGRALVVRKVPPGYSIKVFDFERSGLQHAPEPDAADGPYDPNSVRISFAKGWGPCYSRQFITSCPCWLEILLNNPR
notes: Co-immunoprecipitation construct; also called Smad6; not shown: flag peptide for immunoprecipitation
B2: GAL4 transcriptional activation domain alone (other, UniProt P04386 768-881, looked up)
chain: ANFNQSGNIADSSLSFTFTNSSNGPNLITTQTNSQALSQPIASSNVHDNFMNNEITASKIDDGNNSKPLSPGWTDQTAYNAFGITTGMFNTTTMDDVYNYLFDDEDTPPNPKKE
notes: Two-hybrid control; also called GAL4 AD alone; GAL4 AD
B3: fchd540 protein fused to a flag peptide (transfected 293 cells or BAECs) (other, human, UniProt O15105 1-426, looked up)
chain: MFRTKRSALVRRLWRSRAPGGEDEEEGAGGGGGGGELRGEGATDSRAHGAGGGGPGRAGCCLGKAVRGAKGHHHPHPPAAGAGAAGGAEADLKALTHSVLKKLKERQLELLLQAVESRGGTRTACLLLPGRLDCRLGPGAPAGAQPAQPPSSYSLPLLLCKVFRWPDLRHSSEVKRLCCCESYGKINPELVCCNPHHLSRLCELESPPPPYSRYPMDFLKPTADCPDAVPSSAETGGTNYLAPGGLSDSQLLLEPGDRSHWCVVAYWEEKTRVGRLYCVQEPSLDIFYDLPQGNGFCLGQLNSDNKSQLVQKVRSKIGCGIQLTREVDGVWVYNRSSYPIFIKSATLDNPDSRTLLVHKVFPGFSIKAFDYEKAYSLQRPNDHEFMQQPWTGFTVQISFVKGWGQCYTRQFISSCPCWLEVIFNSR
notes: Co-immunoprecipitation construct; not shown: flag peptide (different from that on rchd534)

The target of data set [1] is B3. Briefly: co-immunoprecipitation, BAECs against 293 cells, equal amounts of protein. The protocol:
(§1) The interaction of the rchd534 and fchd540 proteins, observed in yeast cells as described above, was tested in mammalian endothelial cell tissue culture. Either bovine aortic endothelial cells (BAECs) or 293 cells (human embryonic kidney cells, ATCC Accession No. CRL-1573) were transfected with constructs encoding both the rchd534 and fchd540 proteins, each fused to a different flag peptide allowing for specific immunoprecipitation. […] The co-immunoprecipitation of rchd534 and fchd540 further supports that these proteins interact in human cells that are physiologically relevant to cardiovascular disease.
The ability of the rchd534 and fchd540 proteins to interact with themselves and with other protein members of the TGF-β signalling pathway (MADR1, MADR2, DPC4, TbR1, TSR1, ActR1b, ALK3, ALK6), was tested using this co-inmunoprecipitation method. Each gene was transfected alone and in various combinations with other TGF-β pathway genes in either 293 cells or BAECs. The rchd534 protein formed homodimers in 293 cells and BAECs. […] As mentioned above, the rchd534 and fchd540 proteins formed heterodimers in 293 cells and BAECs. This interaction is about 50 fold stronger in BAECs than 293 cells based on equal amounts of protein.

Data set [2] concerns the target T1, GAL4 DNA-binding domain-fchd540 fusion (human, UniProt P04386 1-147; O15105 1-426).
T1 construct: Yeast two-hybrid bait; also called fchd540 bait protein; pGBT9-fchd540
Briefly: yeast two-hybrid mating assay (HIS3 and lacZ reporters). An excerpt: (§2) Yeast expression plasmids encoding the GAL4 DNA-binding domain either alone or fused in frame to fchd540, rchd534, Drosophilia MAD, DPC4, or p53 were transformed into MATa two-hybrid screening strain HF7c. Yeast expression plasmnids encoding the GAL4 transcriptional activation domain alone and GAL4 activation domain fusions to rchd534 and SV40 were transformed into MATα two-hybrid screening strain Y1 87. p53 and SV40 interact with each other and should not interact with the experimental proteins. The HF7c transformants were propagated as stripes on semisolid synthetic complete medium lacking L-tryptophan and the Y187 transformants were grown as stripes on semisolid synthetic complete medium lacking L-leucine. Both sets of stripes were replica plated in the form of a grid onto a single rich YPAD plate and the haploid strains of opposite mating types were allowed to mate overnight at 30° C. The yeast strains on the mating plate were then replica plated to a synthetic complete plate lacking L-leucine and L-tryptophan to select for diploids and incubated at 30° C. overnight. Diploid strains on the synthetic complete plate lacking L-leucine and L-tryptophan were replica plated to a synthetic complete plate lacking L-leucine, L-tryptophan, and L-histidine to assay HIS3 expression and a paper filter on a synthetic complete plate lacking L-leucine and L-tryptophan. The next day the paper filter was subjected to the paper filter beta-galactosidase assay to measure expression of the lacZ reporter gene. HIS3 expression was scored after 3 days of growth at 30° C.
(§3) It was confirmed that these rchd534 cDNAs encode proteins that physically interact specifically with fchd540. Yeast expression plasmids encoding the GAL4 DNA-binding domain either alone or fused in frame to fchd540, rchd534, Drosophila MAD, DPC4, and p53 were transformed into MATa two-hybrid screening strain HF7c. Yeast expression plasmids encoding the GAL4 transcriptional activation domain (GAL4 AD) alone and GAL4 activation domain fusions to tchv03a, tchvR4A and SV40 were transformed into MATα two-hybrid screening strain Y1 87. p53 and SV40 interact with each other and should not interact with the experimental proteins. The HF7c transformants were propagated as stripes on semi-solid synthetic complete medium lacking […].

The target in data set [3] is T2, GAL4 DNA-binding domain alone (UniProt P04386 1-147).
T2 construct: Two-hybrid control
The data set is described as above.
From the text: as §2, §3

Data set [4] has as its target T3, GAL4 DNA-binding domain fusion to rchd534 (human, UniProt P04386 1-147; O43541 1-235, limits assumed).
T3 construct: Yeast two-hybrid bait; also called rchd534 bait protein
Described as above.
From the text: as §2, §3

The target in data set [5] is T4, GAL4 DNA-binding domain fusion to Drosophila MAD (Drosophila, UniProt P04386 1-147; P42003 1-455, limits assumed).
T4 construct: Yeast two-hybrid bait; also called Dros; MAD; MAD bait protein
Described as above.
From the text: as §2, §3

Data set [6] has as its target T5, GAL4 DNA-binding domain fusion to DPC4 (UniProt P04386 1-147; Q13485 1-552, limits assumed).
T5 construct: Yeast two-hybrid bait; also called DPC4 bait protein
The data set is described as above.
From the text: as §2, §3

Data set [7] concerns the molecule itself. In words: co-immunoprecipitation from transfected 293 cells or BAECs. The method, then:
as §1

On to B1, for which the “fold stronger interaction in BAECs than in 293 cells” value in data set [1] was around 50 fold.
Consider B2, for which the binding result in data set [2], in data set [3], in data set [4], in data set [5] and in data set [6] was “no binding” each time.
For B3, the binding result in data set [7] was “no binding”.
